Assay results from patent publication US20210325403.

Biological target: T1, caspase-3 substrate CGKRKGDEVDSG
T1 chain: CGKRKGDEVDSG

B1: caspase-3 (protein)
chain: SGISLDNSYKMDYPEMGLCIIINNKNFHKSTGMTSRSGTDVDAANLRETFRNLKYEVRNKNDLTREEIVELMRDVSKEDHSKRSSFVCVLLSHGEEGIIFGTNGPVDLKKITNFFRGDRCRSLTGKPKLFIIQACRGTELDCGIETDSGVDDDMACHKIPVEADFLYAYSTAPGYYSWRNSKDGSWFIQSLCAMLKQYADKLEFMHILTRVNRKVATEFESFSFDATFHAKKQIPCIVSMLTKELYFYH
  cleavage of the immobilised substrate, read by SAMDI mass spectrometry: we also observed a peak corresponding to the caspase-3 product at 144 Da lower than the initial substrate mass
